This note sets out measurements from the domain aggregation screens of Martell et al. (2025).
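Further: 20 min heating vs room temperature control held 20 min.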

The nature of the data set: soluble fraction after stress (log2 fold change); higher = more stays soluble; pooled small domains, quantitative proteomics. The following applies: stress: 75 degC.
Turning to “HMDSLQDFAYEEIKKRIQNGEYAPGTKLNTQEISDSLGISRSPVLAAINRLIALGLVEATPRKGTTVA”, the “soluble fraction (log2)” value was -0.116.

Consider “HMDSLSGQQGRVLEEINGFLQTGKVLLNGMEWSAVSKQPEDILPVDTEVVVVRVEGAHLVVKKA”, for which the “soluble fraction (log2)” value was -0.286.

For “HMDSPRITMDQLRIGLYVYLDLTWFQHPFAFSHFKINSEDQIKTILGLGLKSVRYDPALSDPV”, the “soluble fraction (log2)” value was -2.91.

As to “HMDSQSVFADLVKSLSQKIASIPVWFEYTKNEQYDLISSYVSAKLKDLGVEFSQEEKEKFITMFMNS”, the “soluble fraction (log2)” value was -0.609.

Regarding “HMDSRQIIAALQARYADETGITALKIKFNNVLGYFVDVPARYGDPLMKPPLSETFIHRQTLASNVRF”, the “soluble fraction (log2)” value is -0.0679.

For “HMDSSITLMRMYIPKGHNWENKLISDVSMPTNSLALMIKRNGTTIIPKGDTMILAKDTLILSVPSYEPS”, the “soluble fraction (log2)” value was -2.6.

With “HMDSSNLSLIAGVGPTIEKKLRAAGITSWEQIAAWTEADVAKYDEELNLRGRITRDEWIEQAKELLAGKPP”, the “soluble fraction (log2)” value is 0.0267.

For the sequence “HMDSTLDLVATQGGRLDQVLAEMIPEHSRNRLQHWIKAGRVLVDGQPVLEPKHKIYGGEDLAVRVD”, the “soluble fraction (log2)” value turned out to be 0.215.

Turning to “HMDSVSAVRTTHLNSYVLLLEKDGMAAATISRYIASMKGFFEYLFREHMIEEDPAFTLKPPKV”, the “soluble fraction (log2)” value stood at 0.009.

For the sequence “HMDSVVPNVVGMTAEKANKALTDAGLNVKITGATIGSGAVVHSQSIPAGTVTSKGTVVSIEMRFAAAEGD”, the “soluble fraction (log2)” value is -0.242.

On to “HMDSYSILGIEKESSMEDIEKAYIDKISKIKKEVKNEKNAAAFEAVLTKAYNDILSQKENISEEQELAE”, for which the “soluble fraction (log2)” value was determined as 0.0885.

Regarding “HMDTAGSVAIVSKSVIENGFGEIKYKGTYFKAQSDVYIPKDQMVKVIGKGDEQGSFLIVEKLN”, the “soluble fraction (log2)” value was found to be 0.0706.

Take “HMDTIASESVRNRIEELISNENPKKPLSDQALVKMLQEFDIKIARRTVAKYREMLKIPPSSKRKQV”: the “soluble fraction (log2)” value was -0.265.

As to “HMDTIGSKVLAFLAGNLLDPTPFNYRFGYLYLNRTSKVIVEETDTYIDSGMRMTQEAVAEIMQKFAQ”, the “soluble fraction (log2)” value is -4.12.

Regarding “HMDTITMAGERYAVSDLEKVSGDIFEKAFGFEIDPKTADAKDVLPTMPKSDVDLFKKLSGIKP”, the “soluble fraction (log2)” value stood at 0.401.

Turning to “HMDTIYPFNPNFIDDYKGYVLGLNTNEIDRLLKYRSKGNWINSAEDFKKVTGIDDALLNKLSKSFKFPDWL”, the “soluble fraction (log2)” value is -1.81.

Turning to “HMDTLRPLGRYQNVHLTKQELTALQSEFSDWSERIERLSSYMASTGRKYQNHAATIRLWAEKDK”, the “soluble fraction (log2)” value worked out at 0.0841.

As for “HMDTMINLIGLNLKKAKKELSNLGVNVKKVRYKKSSVYDEGVVIDQSIEAGRNIKNGDFITITVSSGKA”, the “soluble fraction (log2)” value was -0.473.

With “HMDTNEPFAQLQLRFTDPIQYDYEVIRPVVLFSQSVTDRSDETEMPRTTVREKARQFVTEGMLGLVDK”, the “soluble fraction (log2)” value is 0.166.

Take “HMDTNTIIGLRIKALRTEKKYTLKYLSENSGLSIGFLSQLERGMTSVAIDSLDKISKVLDVELSSFFN”: the “soluble fraction (log2)” value is -3.05.

As to “HMDTPMQEAVLQRLRDKVAQAAAGSKLPTVRQLIADYGVGQHVIQAALEKLRTEGLITSHVGKGTFVG”, the “soluble fraction (log2)” value turned out to be 0.325.

Consider “HMDTPMYMAIIEEVRFQIANEILKEGEQLPSIRNLAKTLKVSVITVKRAYKELEEAGYITTIPAKGSKVS”, for which the “soluble fraction (log2)” value was -1.16.

Turning to “HMDTQKYDLNDDGRFDVQDVTYLQIKIAGDGELTDNQKKIADYNNDGKIDVQDVTSAQMLIS”, the “soluble fraction (log2)” value turned out to be 0.023.

Regarding “HMDTSADEVKQLIASFVEQEDKRKPLSDQKIVELLAEKEQKISRRTVAKYRDALNIPSSSKRKRF”, the “soluble fraction (log2)” value turned out to be 0.469.

Take “HMDTSISHLVGRTGEAVTDLRPAGTVMIDGELYDARATEGFIEKGEIVKAIKYQYGQLNVRRVSK”: the “soluble fraction (log2)” value was found to be 0.00609.

As to “HMDTVSYSTLLRDIDAKEIKQLDLVPGRREVRVQYNDGRRVTVPVFANDNQILRAAESSGTPLTVV”, the “soluble fraction (log2)” value is 0.0297.

Consider “HMDVADITGTRKAAILLLTMDEELSKELLKEFERHEIEAIGKEIANIKYIPENIVKQVHSEFLKNINKS”, for which the “soluble fraction (log2)” value was -0.282.

“HMDVFTAKTASHIQELREKLGQQAVFGRSDVQNALGLKATRSSALLREMAEHGIIEPVTGYGKGRYHFRS”: the “soluble fraction (log2)” value came to 0.204.

Take “HMDVIDDAQAMEIALEDAGLSMDDLDRYELELHTKRSELVYSIELKSGTEEYEYDLRAADGTILKRDTDF”: the “soluble fraction (log2)” value is 0.0166.

On to “HMDVLDVADNVNDDMSFADAFAAARSEVGAGGIFYWHGKAYGTYYENEWAGMSEEDKADYWDAVARTTS”, for which the “soluble fraction (log2)” value is -0.144.

For “HMDVLSPEEWIEFRTAYNNNRYISQYGSKGATIEDDYATRLAMIGGKESYYFLNDPRWTEPGYGNLK”, the “soluble fraction (log2)” value was -0.5.

As to “HMDVMNEIQQKAFDIYIQSASLKNDFTPISERALAKKLHDMGLKSSMSAIGRWKKKFGWVQSLQNKVTLA”, the “soluble fraction (log2)” value was -0.173.

As for “HMDVNKDLLGETLEKAKSYKADDWRKASYEALQKAIVEAEAVYKDEEADQVAVDRKVAALNKAINNLEAKG”, the “soluble fraction (log2)” value was 0.475.

For the sequence “HMDVNPETLSYYIERADISLDELRTSVKGIDLFLTGEKQPTFNQISNIAKKLNIPTGLLLINKPIEI”, the “soluble fraction (log2)” value is -0.645.

As for “HMDVNSRIRQFLKKMKITVQTFESSIGKTNGYIAHTKSPTAGVLAEIAKVYPDLNLDWLITGEGEMLKN”, the “soluble fraction (log2)” value was -1.42.

As for “HMDVPTSSITEVKKSPMDVFAQARKAETGVYIFNREKIAGVMLTKEQYEALVEELNTLRDTL”, the “soluble fraction (log2)” value is -0.68.

For the sequence “HMDVQEILGALSPDEKAAIGQLTSGEKHIDQIIAATRLPAARITSALTLLQIKGYVRALPGKRFSLTEKQ”, the “soluble fraction (log2)” value is -1.87.

“HMDVQPTTTKTMFYTVQQGETLFSISRKFGISVEEITKKNPLASSGLTVGMELLLPEKKEINSTIQS”: the “soluble fraction (log2)” value was determined as 0.0149.

For “HMDVSEITTIKWIIKETKLGINEKILIYVNSKNFTVETLMEGFEIMSKYLVENVSSDKIVYIKN”, the “soluble fraction (log2)” value came out at 0.0119.

For “HMDVTDRLARRLQGLRSAQGLSLDALAARSGVSRSNISLIERGQSSPTATVLDKLSAALGVTLAALFEEP”, the “soluble fraction (log2)” value is -1.04.

As to “HMDWVAYGAELRRRRLLAGWTVAELSRRINLSGMTIHQIEKGRGRLRPSELTLAKLAAALGMPTP”, the “soluble fraction (log2)” value was -3.58.

For “HMDYEVPEELEEKFSENPQFKEAFDNLTPGRQHQYIYHISQAKRSQTRINRIEKYYEHILNGKGMQD”, the “soluble fraction (log2)” value is 0.111.

With “HMDYGTATASAILYLEKIDPENPYLLLAKDTITTNPKMSVNFALKGIIESKKGEKEENLNKALEIMSSL”, the “soluble fraction (log2)” value is -0.144.

Consider “HMDYKSNLQEMVQTTKKSVTYELVKEEGPAHDRTFTMNVIVDGIVLGTGTAKSKKEAEQEAAHQALEKKA”, for which the “soluble fraction (log2)” value was -0.253.

On to “HMDYTGIPQSLLDLMKKDNIMPMQIQRAVAERNYYPVDTPISNYDPMFIEAKLVGAWDQVLNVISHLDLP”, for which the “soluble fraction (log2)” value was -1.25.

Regarding “HMDYTPIEVKDLPQAIQDALTKNFSEYTVKSAAYQEDEDGVKIYQVTVVDEEGTEANIFFTEKGE”, the “soluble fraction (log2)” value was 0.206.

On to “HMEADERRNEILDAAETLITEKGYSKTTIIDILNQVGIAKGTFYYYFKSKEEVMDAIIERFI”, for which the “soluble fraction (log2)” value is -2.41.

For “HMEAEGLDFAPMPGEIGKKLWQEVSKEAWAGWLKHQTMLVNENRLSFVDPAARKYLTEQTEAYFFG”, the “soluble fraction (log2)” value stood at 0.131.

As to “HMEAEMLYQVKVKITNLVIRSGAGAIYPIVKRYASGVLPIYEEKNGYGKIAVGQWISLSPEFVERVD”, the “soluble fraction (log2)” value was -3.13.

As for “HMEAEPRLLDLPPGTRAGRLDKVLAQLLPEHSRSRLQGWIERGGVLVNGKEASVRQVVGPGDQLTVWEEAA”, the “soluble fraction (log2)” value was -0.0507.

“HMEAEQLEAIRSALQQLSDMNRTVFNLHVVDGYKHEEIAAMLNITTGTSKAHLHRAKKRLRELID”: the “soluble fraction (log2)” value was -1.04.

Consider “HMEAEVIKTASDMADRNGLHNVSLKAIAENLGIRTPSLYNHIGSLDELLREIAHSGMRTMNE”, for which the “soluble fraction (log2)” value is -0.0854.

For “HMEAFAEAVASMLRKLQPEFAIDLVGPRELLVNGRRLDLENLYRMVNHEPVRGQEIVEHYLDQLFAG”, the “soluble fraction (log2)” value is -1.17.

Turning to “HMEAGLRMPEQLTAFSALALLQKVRDSGPLTDAQKEQLDADVLRIEASHFGKADREALELEEILKQWLSRV”, the “soluble fraction (log2)” value is 0.149.

Turning to “HMEAKSSTKALLDVVLGRNGVSTANVAKSLNISVQNASTRLKKLSSEGVIMRSEVSSPTGGIEFIYS”, the “soluble fraction (log2)” value worked out at 0.109.

Regarding “HMEAKTSNPDYHARLGLTEGEGNDSALGVSVKAAEGGFGLLFGNKVGSDQLVRFANEDQVWLVNRALS”, the “soluble fraction (log2)” value was 0.165.

In the case of “HMEALNIEQKKVEIINVLLEKGKGKGRLSYKEISDQIDTVELDKDQMDELYETLMTNGIEIV”, the “soluble fraction (log2)” value came out at 0.00136.

“HMEALPSNLRRLRLEAQLTLDRLGALSGVSRAMISKIERGASVPTATMLGKLAAALQVSLSQLL”: the “soluble fraction (log2)” value was -1.18.

Take “HMEAMITEVKRINYGLISDISKSLDPFKSEGGHIIVDKRTNTFILTDLRANIEKMLWSIEIMD”: the “soluble fraction (log2)” value was -0.196.

For the sequence “HMEAPNELLVPEGARPARADRVLAAAFPEHSRTALQRAFDAGLVRRANLVLSRDTAVAGGDRIAFSLPAV”, the “soluble fraction (log2)” value is 0.0788.

“HMEARYQLREVSLDGLRSGMILNADVLSTDGVLMARKGLEVSGLLRSRLEAFAKMERIEPTFKVLVPIAPP”: the “soluble fraction (log2)” value was -2.19.

“HMEASSTAIQAMIRRLIDDENPRKPLSDAKLADLLKSSGIPVARRTVAKYREAMNISASHERVRI”: the “soluble fraction (log2)” value was -0.793.

Regarding “HMEATEFYLEDLTGQMYNDVVNDEKYAGKIVFEKEEVQSDGEEAIGQILNQRPAGNMNVRIGTTVTLVVNA”, the “soluble fraction (log2)” value worked out at 0.242.

As for “HMEATVGSRVRLARIGLTLTQKQLAQAVGVSANHLAMVERGSKHASEDLLQRIATATHTTYEWLMGTSEHQ”, the “soluble fraction (log2)” value is -2.43.

In the case of “HMEAVIENAAIIKQNSGGYAVRATVNGVDLGMKPVERATALLYFSLTDKLEKDRLLSHTLQKTYGDLSA”, the “soluble fraction (log2)” value is -0.212.

As for “HMEAYLPVTVVSDGKILTGNLEKAGKNEKWLENVLSELKTDVKNTLLLTVDPKDGLIFYPKG”, the “soluble fraction (log2)” value is 0.408.

In the case of “HMEAYMVPNVKNKTLNEAQQALSNQKLKGLVIDSSYVKGVPDGMVLDQNPAGGARVKEGRTIYLTVTTS”, the “soluble fraction (log2)” value worked out at 0.237.

In the case of “HMEDADERRALEVLNQLLDLPEREQEAALAALSLPPALARRVRSLLSVQTRAADLFDTAPSP”, the “soluble fraction (log2)” value was 0.0142.

For the sequence “HMEDAFLQRLISIIEANLSNVDFNVKMLAEQLNMSQPTLYRKVKQRSELSVIDMIRSIRILSLIHISEPTR”, the “soluble fraction (log2)” value is -1.07.

On to “HMEDDRLIQNLLLTAKNLVMDVGRMDESALAENEDTVRTAMLFALGYLYENRSNPDYHKLTLNLRSILFA”, for which the “soluble fraction (log2)” value is -0.38.
